# Results taken from CN114380913A (SHANGHAI LUBRIGHT MEDICINE TECH CO LTD, dated 2022).
# Columns and labels:
# [1] = biological target: T1, 生物素标记的鼠PD-L1(Sino，货号:50010-M08H-B) (mouse, UniProt Q9EP73 19-238, biotin label (site not stated)); assay: BLI (Octet RED96e), avidity format: Biotin mPD-L1 on SA sensor, antibody in solution
# T1 construct: Bought biotinylated protein; also called Biotin mPD-L1
# [2] = biological target: T2, CHOK1-h PD-L1(GenScript M00543)细胞表面PD-L1 (human, UniProt Q9NZQ7 19-290); assay: FACS competition: blocks Biotin PD-1 mFc binding to CHOK1-hPD-L1 cells
# T2 construct: whole, on cells; also called 细胞表面抗原PD-L1
# [3] = biological target: T2, CHOK1-h PD-L1(GenScript M00543)细胞表面PD-L1; assay: FACS on CHOK1-hPD-L1 cells
# [4] = biological target: T3, 生物素标记的人PD-L1(acro，货号:PD1-H82E5) (human, UniProt Q9NZQ7 19-238, biotin label (site not stated)); assay: BLI (Octet RED96e), avidity format: Biotin hPD-L1 on SA sensor, antibody in solution
# T3 construct: Bought biotinylated protein; also called Biotin hPD-L1; BiotinhPD-L1
# [5] = biological target: T4, 猴PD-L1-Fc(Acro，货号:PD1-C5253) (monkey (cynomolgus)); assay: BLI (Octet RED96e), avidity format: antibody on CH1 sensor, monkey PD-L1-Fc in solution
# T4 construct: Bought Fc fusion; also called Cyno PD-L1; 食蟹猴PD-L1
# [6] = biological target: T5, 人PD-L1 his(Acro，货号:PD1-H5229) (human, UniProt Q9NZQ7 19-238); assay: BLI (Octet RED96e), affinity format: antibody on AHC sensor, human PD-L1 his in solution
# T5 construct: Bought protein; also called human PD-L1 his; not shown: His tag
# T1 sequence (Q9EP73 19-238 limits assumed, stated change not applied): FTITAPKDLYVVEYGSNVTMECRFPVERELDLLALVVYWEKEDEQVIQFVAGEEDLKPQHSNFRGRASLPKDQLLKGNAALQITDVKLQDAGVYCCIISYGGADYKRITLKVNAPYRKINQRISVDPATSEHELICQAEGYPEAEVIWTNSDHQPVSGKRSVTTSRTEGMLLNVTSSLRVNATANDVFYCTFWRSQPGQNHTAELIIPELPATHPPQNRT
binder,measurement,setting,value
"Ab1910T2 (antibody, human IgG1, kappa, N297A, V domains shown, Full human IgG1 (Fc N297A) / kappa, made in ExpiCHO; also called 本申请抗PD-L1抗体Ab1910T2; 所述抗PD-L1单克隆抗体) VH: EVQLVESGGGLVQPGGSLRLSCAASGFPFTNYAMSWVRQAPGKGLEWVSSISGSGAGTYYADSVKGRFTISRDNSKNTLYLQMNSLRAEDTAVYYCAKDLFPTIFGVVTTNYMDVWGKGTTVTVSS VL: DIQMTQSPSSLSASVGDRVTITCRASQSISSYLNWYQQKPGKAPKLLIYSASSLQIGVPSRFSGSGSGTDFTLTISSLQPEDFATYYCQQSYSIPVTFGQGTKVEIKR",Kd,[1],~0.58 nM
same,IC50,[2],1.02 µg/mL
same,EC50,[3],0.02 µg/mL
same,Kd,[4],~0.15 nM
same,Kd,[5],~0.79 nM
same,Kd,[6],~26 nM
